From US9109237B2, “Method of preparing piceatannol using bacterial cytochrome P450 and composition therefor” (priority 2008, dated 2015)

Experiments:
human CYP1A2 = target: T1, human CYP1A2 (Homo sapiens, UniProt P05177); settings: cited from earlier work
T1 sequence (P05177 1-516): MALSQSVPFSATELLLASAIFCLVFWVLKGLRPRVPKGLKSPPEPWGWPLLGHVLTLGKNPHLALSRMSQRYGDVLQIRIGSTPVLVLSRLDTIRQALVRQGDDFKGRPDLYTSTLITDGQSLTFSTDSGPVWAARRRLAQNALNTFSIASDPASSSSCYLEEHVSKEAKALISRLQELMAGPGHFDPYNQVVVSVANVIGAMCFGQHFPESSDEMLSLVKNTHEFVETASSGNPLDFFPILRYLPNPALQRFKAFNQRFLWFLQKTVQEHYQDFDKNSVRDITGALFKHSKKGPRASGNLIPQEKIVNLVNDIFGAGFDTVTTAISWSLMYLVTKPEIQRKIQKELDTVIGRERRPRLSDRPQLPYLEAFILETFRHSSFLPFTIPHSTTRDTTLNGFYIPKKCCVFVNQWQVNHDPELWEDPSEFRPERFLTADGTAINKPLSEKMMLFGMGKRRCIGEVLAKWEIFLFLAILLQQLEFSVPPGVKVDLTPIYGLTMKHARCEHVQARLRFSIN

[1] = Resveratrol metabolite profile by HPLC and GC-MS; assay type: biochemical; settings: HPLC, UV 320 nm
Method: (§1) Oxidation of trans-resveratrol, a substrate of human CYP1A2, by CYP102A1 was identified. Typical steady-state reactions for trans-resveratrol hydroxylation included 50 pmol P450 BM3 in 0.25 ml of a 100 mM potassium phosphate buffer (pH 7.4) were performed along with a specified amount of a substrate. To determine the kinetic parameter of several CYP102A1 mutants, 2 to 100 μM of trans-resveratrol was used. An NADPH-generating system was used to initiate reaction solutions (final concentrations: 10 mM glucose 6-phosphate, 0.5 mM NADP+, and 1 IU yeast glucose 6-phosphate per ml). Trans-resveratrol stocks (20 mM) were prepared in DMSO and diluted into the enzyme reactions with the final organic solvent concentration <1% (v/v). Reactions were generally incubated for 10 min at 37° C., and terminated with 105 μl of ice-cold acetic acid/methanol (95/5, v/v).
After centrifugation of the reaction mixture, the supernatant was analyzed by HPLC (Piver et al. 2004). Samples (30 μl) were injected into a Gemini C18 column (4.6 mm×150 mm, 5 μm, Phenomenex, Torrance, Calif.). The mobile phase A was water containing 87 mM of 0.5% acetic acid/acetonitrile (95/5, v/v); whereas the mobile phase B was acetonitrile/0.5% acetic acid (95/5, v/v). […] Eluates were detected by UV rays at 320 nm. […]

[2] = Kinetic parameters of piceatannol formation (3'-hydroxylation of resveratrol); assay type: biochemical
Method: as §1, with “Reactions were generally incubated for 10 min at 37° C., and terminated with 105 μl of ice-cold acetic acid/methanol (95/5, v/v).” left out
After centrifugation of the reaction mixture, the supernatant was analyzed by HPLC (Piver et al. 2004). […] Eluates were detected by UV rays at 320 nm.
Kinetic parameters (Km and kcat) were determined using nonlinear regression analysis with GraphPad PRISM software (GraphPad, San Diego, Calif., USA). The data were analyzed using the standard Michaelis-Menten equation: v=kcat[E][S]/([S]+Km), where the velocity of the reaction is a function of the rate-limiting step in turnover (kcat), the enzyme concentration ([E]), substrate concentration ([S]), and the Michaelis constant (Km).

[3] = Rates of piceatannol formation (trans-resveratrol hydroxylation) at fixed substrate concentration, HPLC; assay type: biochemical; settings: fixed substrate concentration 100 μM trans-resveratrol
Method: as §1
After centrifugation of the reaction mixture, the supernatant was analyzed by HPLC (Piver et al. 2004). Samples (30 μl) were injected into a Gemini C18 column (4.6 mm×150 mm, 5 μm, Phenomenex, Torrance, Calif.). […] Eluates were detected by UV rays at 320 nm.
The ability of wild-type P450 BM3 and mutants of P450 BM3 to oxidize trans-resveratrol was measured at a fixed substance concentration (100 μM).

## Oc1cc(O)cc(C=Cc2ccc(O)c(O)c2)c1 [Piceatannol, 3,5,3′,4′-tetrahydroxystilbene]
Human CYP1A2
  Inhibition of human CYP1A2 (in words): potent inhibitor

## Oc1ccc(C=Cc2cc(O)cc(O)c2)cc1 [Resveratrol, 3,4′,5-trihydroxystilbene]
Human CYP1A2
  Inhibition of human CYP1A2 (in words): substrate and inhibitor

B1: human CYP1A2: Human cytochrome P450 1A2, prepared as disclosed by Kim et al. (2008c); comparison enzyme (protein, UniProt P05177 2-516, looked up)
Cytochrome P450 1A2: ALSQSVPFSATELLLASAIFCLVFWVLKGLRPRVPKGLKSPPEPWGWPLLGHVLTLGKNPHLALSRMSQRYGDVLQIRIGSTPVLVLSRLDTIRQALVRQGDDFKGRPDLYTSTLITDGQSLTFSTDSGPVWAARRRLAQNALNTFSIASDPASSSSCYLEEHVSKEAKALISRLQELMAGPGHFDPYNQVVVSVANVIGAMCFGQHFPESSDEMLSLVKNTHEFVETASSGNPLDFFPILRYLPNPALQRFKAFNQRFLWFLQKTVQEHYQDFDKNSVRDITGALFKHSKKGPRASGNLIPQEKIVNLVNDIFGAGFDTVTTAISWSLMYLVTKPEIQRKIQKELDTVIGRERRPRLSDRPQLPYLEAFILETFRHSSFLPFTIPHSTTRDTTLNGFYIPKKCCVFVNQWQVNHDPELWEDPSEFRPERFLTADGTAINKPLSEKMMLFGMGKRRCIGEVLAKWEIFLFLAILLQQLEFSVPPGVKVDLTPIYGLTMKHARCEHVQARLRFSIN
[1]
  Metabolites produced on oxidation of resveratrol: two major metabolites: piceatannol and other hydroxylated products
[2]
  Kinetic parameters, result in words: kinetic parameters could not be obtained

B2: WT: BM3 wild type; bacterial cytochrome P450 BM3 (CYP102A1) from Bacillus megaterium, SEQ ID NO:16 (protein, listed as Bacillus megaterium)
chain: TIKEMPQPKTFGELKNLPLLNTDKPVQALMKIADELGEIFKFEAPGRVTRYLSSQRLIKEACDESRFDKNLSQALKFVRDFAGDGLFTSWTHEKNWKKAHNILLPSFSQQAMKGYHAMMVDIAVQLVQKWERLNADEHIEVPEDMTRLTLDTIGLCGFNYRFNSFYRDQPHPFITSMVRALDEAMNKLQRANPDDPAYDENKRQFQEDIKVMNDLVDKIIADRKASGEQSDDLLTHMLNGKDPETGEPLDDENIRYQIITFLIAGHETTSGLLSFALYFLVKNPHVLQKAAEEAARVLVDPVPSYKQVKQLKYVGMVLNEALRLWPTAPAFSLYAKEDTVLGGEYPLEKGDELMVLIPQLHRDKTIWGDDVEEFRPERFENPSAIPQHAFKPFGNGQRACIGQQFALHEATLVLGMMLKHFDFEDHTNYELDIKETLTLKPEGFVVKAKSKKIPLGGIPSPSTEQSAKKVRKKAENAHNTPLLVLYGSNMGTAEGTARDLADIAMSKGFAPQVATLDSHAGNLPREGAVLIVTASYNGHPPDNAKQFVDWLDQASADEVKGVRYSVFGCGDKNWATTYQKVPAFIDETLAAKGAENIADRGEADASDDFEGTYEEWREHMWSDVAAYFNLDIENSEDNKSTLSLQFVDSAADMPLAKMHGAFSTNVVASKELQQPGSARSTRHLEIELPKEASYQEGDHLGVIPRNYEGIVNRVTARFGLDASQQIRLEAEEEKLAHLPLAKTVSVEELLQYVELQDPVTRTQLRAMAAKTVCPPHKVELEALLEKQAYKEQVLAKRLTMLELLEKYPACEMKFSEFIALLPSIRPRYYSISSSPRVDEKQASITVSVVSGEAWSGYGEYKGIASNYLAELQEGDTITCFISTPQSEFTLPKDPETPLIMVGPGTGVAPFRGFVQARKQLKEQGQSLGEAHLYFGCRSPHEDYLYQEELENAQSEGIITLHTAFSRMPNQPKTYVQHVMEQDGKKLIELLDQGAHFYICGDGSQMAPAVEATLMKSYADVHQVSEADARLWLQQLEEKGRYAKDVWAG
[1]
  Metabolites produced on oxidation of resveratrol: only one major metabolite
[3]
  Rate of piceatannol formation: 0.22 ± 0.01 nmol product/min/nmol P450
